In the experiment the target is T1, S. pombe 14xHis-Spt6(282-1159) (S. pombe, UniProt Q09915 282-1159).
T1 construct: transcription elongation factor Spt6, S. pombe, truncated version corresponding to residues 282-1159; Held on Ni-NTA resin by the 14xHis tag in the pulldowns; also called PZH_670; source: E. coli BL21(DE3), purified (Ni Sepharose, dialysis)
T1 sequence (looked up): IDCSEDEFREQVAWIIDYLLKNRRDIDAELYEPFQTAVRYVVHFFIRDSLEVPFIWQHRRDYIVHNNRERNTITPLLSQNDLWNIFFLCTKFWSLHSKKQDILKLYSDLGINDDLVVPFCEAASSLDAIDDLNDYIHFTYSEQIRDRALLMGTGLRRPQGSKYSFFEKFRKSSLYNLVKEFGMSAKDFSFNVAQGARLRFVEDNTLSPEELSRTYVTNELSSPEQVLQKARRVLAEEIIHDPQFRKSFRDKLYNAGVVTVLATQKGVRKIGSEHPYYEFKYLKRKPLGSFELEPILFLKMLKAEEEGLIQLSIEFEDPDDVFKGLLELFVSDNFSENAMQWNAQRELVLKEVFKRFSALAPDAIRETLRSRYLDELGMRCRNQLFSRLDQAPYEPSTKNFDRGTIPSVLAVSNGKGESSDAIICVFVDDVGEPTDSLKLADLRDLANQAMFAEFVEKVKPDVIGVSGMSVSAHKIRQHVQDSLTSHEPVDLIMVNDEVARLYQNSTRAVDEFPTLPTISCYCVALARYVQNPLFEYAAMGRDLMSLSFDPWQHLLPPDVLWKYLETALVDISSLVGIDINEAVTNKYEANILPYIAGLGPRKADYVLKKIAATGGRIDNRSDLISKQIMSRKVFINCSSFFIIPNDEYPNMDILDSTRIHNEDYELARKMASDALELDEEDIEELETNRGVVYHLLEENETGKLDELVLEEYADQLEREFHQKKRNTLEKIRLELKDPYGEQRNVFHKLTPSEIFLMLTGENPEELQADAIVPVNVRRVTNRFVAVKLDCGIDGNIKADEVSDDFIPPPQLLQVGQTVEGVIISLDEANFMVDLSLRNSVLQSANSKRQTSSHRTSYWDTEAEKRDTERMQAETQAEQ
Put plainly: pull-down; 14xHis-Spt6(282-1159) bound to Ni-NTA resin as bait, recombinant histone fusion as prey; 50 mM Tris pH 8, 150 mM NaCl, 2.5 mM DTT, 0.1% tween-20, RT; washing under physiological salt (150 mM NaCl) or stringent (300 mM NaCl) conditions; colloidal Coomassie staining. Particulars: both partners purified.

B1: S. pombe Pht1 (H2A.Z), full-length N-terminal GST fusion (natural protein)
chain: not shown
notes: histone H2A.Z (Pht1), S. pombe, full length; also called full-length Pht1
In the case of B1, the binding result is “binds”.

Source of the values: paper doi:10.1101/2024.05.10.593535, “Single residue changes to the histone core catalyze neofunctionalization and impose fitness trade-offs” (bioRxiv, 2024).
